Patent publication US20230203172A1

Target: human IL-4R alpha on cells (TF-1 cells; human peripheral blood mononuclear cells) (human) (UniProt P24394)
Experiment: cell-based or functional assay

IC50 (ng/ml), inhibition of IL-4-induced TF-1 cell proliferation: 138 ng/mL
Substance: Dupilumab (antibody)
